Experimental data from US20240254190A1 (published 2024).

Experiments:
Assay in all cases: cytokine release
[1] = target: T1, p53 wild type peptide on HLA-DRA*01:01 / HLA-DRB1*01:01 (human)
T1 peptide: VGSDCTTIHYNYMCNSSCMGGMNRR

[2] = target: T2, p53 C135Y peptide on HLA-DQA1*02:01 / HLA-DQB1*05:01 (human)
T2 peptide: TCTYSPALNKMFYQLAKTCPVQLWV

[3] = target: T3, p53 C135Y peptide on HLA-DQA1*02:01 / HLA-DQB1*02:01 (human)
T3 peptide: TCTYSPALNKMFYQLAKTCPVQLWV

[4] = target: T4, p53 C135Y peptide on HLA-DQA1*01:01 / HLA-DQB1*05:01 (human)
T4 peptide: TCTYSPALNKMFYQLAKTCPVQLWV

[5] = target: T5, p53 C135Y peptide on HLA-DPA1*01:03 / HLA-DPB1*11:01 (human)
T5 peptide: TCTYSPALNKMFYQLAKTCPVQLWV

[6] = target: T6, p53 C135Y peptide on HLA-DPA1*02:01 / HLA-DPB1*02:01 (human)
T6 peptide: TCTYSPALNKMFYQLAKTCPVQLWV

[7] = target: T7, p53 wild type peptide on HLA-DRA*01:01 / HLA-DRB1*07:01 (human)
T7 peptide: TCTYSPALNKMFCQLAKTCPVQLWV

[8] = target: T8, p53 C135Y peptide on HLA-DQA1*01:01 / HLA-DQB1*02:02 (human)
T8 peptide: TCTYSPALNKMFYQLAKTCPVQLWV

[9] = target: T9, p53 C135Y peptide on HLA-DPA1*02:01 / HLA-DPB1*11:01 (human)
T9 peptide: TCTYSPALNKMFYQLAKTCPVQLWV

[10] = target: T10, p53 C135Y peptide on HLA-DRA*01:01 / HLA-DRB3*01:01 (human)
T10 peptide: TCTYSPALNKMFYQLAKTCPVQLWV

[11] = target: T11, p53 C135Y peptide on HLA-DQA*01:01 / HLA-DRB4*01:01 (human)
T11 peptide: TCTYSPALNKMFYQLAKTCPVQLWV

[12] = target: T12, p53 C135Y peptide on HLA-DPA1*01:03 / HLA-DPB1*02:01 (human)
T12 peptide: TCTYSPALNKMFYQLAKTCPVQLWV

[13] = target: T13, p53 C135Y peptide on HLA-DRA*01:01 / HLA-DRB1*07:01 (human)
T13 peptide: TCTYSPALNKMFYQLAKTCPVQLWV

[14] = target: T14, p53 C135Y peptide on HLA-DQA1*01:01 / HLA-DQB1*02:01 (human)
T14 peptide: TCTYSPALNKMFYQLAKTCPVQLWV

[15] = target: T15, p53 C135Y peptide on HLA-DQA1*02:01 / HLA-DQB1*02:02 (human)
T15 peptide: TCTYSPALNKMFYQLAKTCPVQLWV

[16] = target: T16, p53 R175H peptide on HLA-B*44:03 (human)
T16 peptide: HMTEVVRHC

[17] = target: T17, p53 R175H peptide on HLA-A*23:01 (human)
T17 peptide: HMTEVVRHC

[18] = target: T18, p53 R175H peptide on HLA-C*07:01 (human)
T18 peptide: HMTEVVRHC

[19] = target: T19, p53 R175H peptide on HLA-B*08:01 (human)
T19 peptide: HMTEVVRHC

[20] = target: T20, p53 R175H peptide on HLA-C*04:01 (human)
T20 peptide: HMTEVVRHC

[21] = target: T21, p53 wild type peptide on HLA-A*02:01 (human)
T21 peptide: HMTEVVRRC

B1: 4304 TCR-4 (TCR, V domains shown)
Valpha: QKEVEQNSGPLSVPEGAIASLNCTYSDRGSQSFFWYRQYSGKSPELIMFIYSNGDKEDGRFTAQLNKASQYVSLLIRDSQPSDSATYLCAVRGGNTGFQKLVFGTGTRLLVSP
Vbeta: AVISQKPSRDICQRGTSLTIQCQVDSQVTMMFWYRQQPGQSLTLIATANQGSEATYESGFVIDKFPISRPNLTFSTLTVSNMSPEDSSIYLCSVRSEDTQYFGPGTRLTVL
B1: no recognition [1].

B2: 4304 TCR-2 (TCR, V domains shown)
Valpha: QSVSQHNHHVILSEAASLELGCNYSYGGTVNLFWYVQYPGQHLQLLLKYFSGDPLVKGIKGFEAEFIKSKFSFNLRKPSVQWSDTAEYFCAVTFMDTGRRALTFGSGTRLQVQP
Vbeta: GVSQSPSNKVTEKGKDVELRCDPISGHTALYWYRQSLGQGLEFLIYFQGNSAPDKSGLPSDRFSAERTGGSVSTLTIQRTQQEDSAVYLCASSPRGGDYEQYFGPGTRLTVT
B2: no recognition [1].

B3: 4316-D TCR (TCR, V domains shown)
Valpha: QQVMQIPQYQHVQEGEDFTTYCNSSTTLSNIQWYKQRPGGHPVFLIQLVKSGEVKKQKRLTFQFGEAKKNSSLHITATQTTDVGTYFCAESYSGGYQKVTFGIGTKLQVIP
Vbeta: EPEVTQTPSHQVTQMGQEVILRCVPISNHLYFYWYRQILGQKVEFLVSFYNNEISEKSEIFDDQFSVERPDGSNFTLKIRSTKLEDSAMYFCASSSFSNEQFFGPGTRLTVL
B3: no recognition [2]; no recognition [3]; no recognition [4]. B3: no recognition [5]; no recognition [6]; no recognition [7]. B3: no recognition [8]; no recognition [9]; no recognition [10]. B3: no recognition [11]; no recognition [12]; recognises [13]. B3: no recognition [14]; no recognition [15].

B4: 4141 IVS TCR (TCR, V domains shown)
Valpha: QTVTQSQPEMSVQEAETVTLSCTYDTSENNYYLFWYKQPPSRQMILVIRQEAYKQQNATENRFSVNFQKAAKSFSLKISDSQLGDTAMYFCAFMAYMEYGNKLVFGAGTILRVKS
Vbeta: EPEVTQTPSHQVTQMGQEVILRCVPISNHLYFYWYRQILGQKVEFLVSFYNNEISEKSEIFDDQFSVERPDGSNFTLKIRSTKLEDSAMYFCACKGITDTQYFGPGTRLTVL
B4: no recognition [16]; no recognition [17]; no recognition [18]. B4: no recognition [19]; no recognition [20]; no recognition [21].

B5: 4304 TCR-K (TCR, V domains shown)
Valpha: KDQVFQPSTVASSEGAVVEIFCNHSVSNAYNFFWYLHFPGCAPRLLVKGSKPSQQGRYNMTYERFSSSLLILQVREADAAVYYCAVSGYQLIWGAGTKLIIKP
Vbeta: GVAQSPRYKIIEKRQSVAFWCNPISGHATLYWYQQILGQGPKLLIQFQNNGVVDDSQLPKDRFSAERLKGVDSTLKIQPAKLEDSAVYLCASSLDRRGGRETQYFGPGTRLLVL
B5: no recognition [1].
